The values below are quoted from earlier work in article PMC12055905.

The target in the series is SARS-CoV-2 spike RBD (SARS-CoV-2) (UniProt P0DTC2).

pKd: −log10 of the molar value.

Regarding HBD-2 (from UniProt O15263), the pKd (commonly the Kd on a negative log10 scale, so that one unit is a factor of ten) is 6.52.
